Source: the supplement of paper PMC10567573

B1: FAM189A2 (parent)
chain: NLAGFILGCQGAQFVSSVPRCDLV
B2: LCOR (parent)
chain: YKVKERLGTLKNPPKKKMKLMSG

Variants of: B1
Experiment: protein stability index of a GFP-peptide fusion (GPS, HEK-293T) (PSI 1-6); higher = more stable
Settings: c terminus: a fixed tail appended
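Further: lentivirally expressed fusions sorted by FACS into six bins by GFP to DsRed ratio, PSI derived from sequencing read proportions per bin multiplied by bin number.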

Point of comparison: D22K, protein stability index 2.59. Against it:
- P19Q — higher, 2.65
- P19N — higher, 3.15
- P19T — higher, 3.3
- P19F — higher, 3.04
- P19A — higher, 3.01
- P19R — lower, 2.56
- P19M — lower, 1.45
- P19C — higher, 3.7
- P19H — higher, 3.01
- S17M — lower, 1.47
- S17T — lower, 1.97
- S17Q — lower, 2.31
- S17I — lower, 1.39
- S17W — higher, 3.85
- S17R — lower, 2.1
- S17K — lower, 2.33
- S17H — higher, 3.37
- S17Y — higher, 3.35
- C21A — lower, 2.57
- C21Q — lower, 2.07
- C21D — lower, 2.33
- C21H — lower, 2.54
- C21K — higher, 3.12
- C21F — higher, 2.92
- C21R — lower, 1.64
- C21S — lower, 1.68
- C21N — higher, 2.79
- C21M — higher, 2.81
- C21T — lower, 2.56
- D22P — higher, 3.08
- D22E — lower, 1.18
- D22M — higher, 2.78
- D22I — lower, 2.13
- D22V — lower, 2.39
- D22F — lower, 2.58
- D22G — lower, 1.75
- D22N — higher, 3.21
- D22C — lower, 2.27
- V18G — lower, 1.61
- V18I — higher, 3.42
- V18C — higher, 2.83
- V18Y — higher, 2.68
- V18D — lower, 2.55
- V18L — lower, 2.27
- V18E — lower, 1.05
- V18M — higher, 3.72
- V18T — lower, 1.68
- V18R — lower, 1.78
- V18N — the same, 2.59
- V18F — lower, 2.54
- V18P — higher, 2.8
- V18S — lower, 2.4
- V18K — lower, 1.99
- R20F — lower, 2.19
- R20P — lower, 2.2
- R20E — lower, 1.96
- R20G — higher, 3.08
- R20L — lower, 1.87
- R20H — higher, 3.48
- R20M — higher, 2.91
- R20I — lower, 2.15
- R20Q — lower, 1.45
- R20K — lower, 2.1
- R20Y — lower, 1.75
- R20D — higher, 3.39
- L23W — higher, 3.69
- L23R — lower, 1.58
- L23N — higher, 2.75
- L23F — higher, 3.42
- L23I — lower, 2.33
- L23K — lower, 1.94
- L23C — higher, 3.66
- L23S — lower, 1.93
- L23G — lower, 1.28
- L23P — higher, 2.98
- L23Y — lower, 2.52
- L23D — lower, 2.45
- V24S — lower, 2.12
- V24F — lower, 2.58
- V24C — higher, 3.68
- V24P — the same, 2.59
- V24H — higher, 3.38
- V24Q — lower, 2.26
- V24I — lower, 2.26
- V24E — lower, 2.23
- V24R — lower, 2.19
- V24D — lower, 1.76
- V24T — lower, 1.53
- V24K — lower, 1.82
- V24A — lower, 1.72

Variants of: B2
Experiment: as above
Settings: c terminus: native

Point of comparison: R6Y, protein stability index 2.14. Against it:
- R6W — higher, 2.79
- R6E — higher, 2.17
- R6G — higher, 2.21
- R6M — higher, 2.5
- R6K — lower, 1.11
- R6P — higher, 2.47
- R6L — lower, 1.84
- R6C — higher, 4.96
- R6S — higher, 3.27
- R6Q — higher, 2.16
- R6F — higher, 2.2
- R6I — higher, 2.49
- R6D — lower, 1.46
- R6T — lower, 1.72
- L7F — lower, 1.5
- L7G — higher, 3.22
- L7N — higher, 2.53
- L7I — the same, 2.14
- L7S — lower, 1.55
- L7C — higher, 2.75
- L7Y — lower, 1.53
- L7A — higher, 2.49
- L7W — lower, 1.76
- L7T — lower, 1.85
- L7M — lower, 1.37
- L7R — lower, 1.06
- L7K — lower, 1.98
- L7Q — lower, 1.52
- L7H — lower, 1.84
- L7E — lower, 2.04
- L7D — higher, 2.56
- L7P — lower, 1.55
- N12R — higher, 3.15
- N12I — lower, 1.09
- N12H — higher, 2.7
- N12F — lower, 1.86
- N12D — lower, 1.65
- N12E — lower, 1.61
- N12P — higher, 2.33
- N12G — higher, 2.84
- N12Q — higher, 2.6
- N12M — lower, 1.26
- N12T — higher, 3.6
- N12W — higher, 2.83
- N12V — lower, 1.86
- N12K — higher, 2.25
- N12A — higher, 2.54
- N12C — higher, 3.3
- N12S — lower, 1.72
- N12Y — higher, 2.39
- V3P — higher, 2.27
- V3H — lower, 1.89
- V3M — higher, 2.46
- V3W — higher, 3.38
- V3K — lower, 1.98
- V3Y — lower, 1.69
- V3L — lower, 1.97
- V3F — lower, 1.62
- V3R — higher, 2.51
- V3T — lower, 1.91
- V3G — lower, 1.67
- V3N — higher, 2.69
- V3C — lower, 1.6
- V3Q — higher, 3.06
- V3S — lower, 1.92
- V3E — lower, 2.08
- V3D — higher, 2.36
- G8Q — higher, 3.21
- G8R — lower, 1.4
- G8T — higher, 2.16
- G8V — higher, 2.33
- G8E — higher, 2.72
- G8L — higher, 2.22
- G8M — lower, 1.69
- G8H — lower, 1.92
- G8I — lower, 1.12
- G8C — higher, 2.52
- G8S — lower, 1.76
- G8K — lower, 1.47
- G8P — higher, 3.05
- G8Y — lower, 2.08
- G8N — lower, 1.27
- G8A — lower, 1.85
- L10I — lower, 1.5
- L10D — lower, 1.86
- L10Y — higher, 3.47
- L10R — higher, 2.23
- L10A — higher, 2.38
- L10T — higher, 2.52
- L10S — lower, 1.85
- L10M — higher, 2.8
- L10H — lower, 1.85
- L10K — lower, 1.85
- L10E — lower, 2.04
- L10V — lower, 2
- L10G — lower, 1.35
- L10Q — lower, 1.52
- L10F — higher, 2.46
- L10W — higher, 2.42
- L10P — lower, 1.42
- L10C — higher, 2.19
- L10N — higher, 2.85
- E5S — lower, 2.11
- E5K — higher, 2.21
- E5Q — lower, 1.22
- E5F — higher, 2.71
- E5V — higher, 2.94
- E5D — lower, 1.78
- E5W — higher, 3.07
- E5G — higher, 2.44
- E5R — lower, 1.95
- E5C — lower, 1.74
- E5A — lower, 1.75
- E5P — higher, 2.25
- E5T — higher, 2.22
- E5I — lower, 1.75
- E5N — lower, 1.25
- E5H — higher, 2.85
- K16D — higher, 2.35
- K16F — lower, 1.45
- K16H — lower, 1.49
- K16C — lower, 1.15
- K16N — lower, 1.76
- K16G — higher, 2.57
- K16M — lower, 1.49
- K16I — lower, 1.39
- K16E — higher, 2.83
- K16L — higher, 2.34
- P14Y — higher, 3.03
- P14D — lower, 1.71
- P14C — the same, 2.14
- P14S — higher, 3.59
- P14E — lower, 1.37
- P14N — lower, 1.49
- P14M — higher, 3.42
- P14L — lower, 1.32
- P14T — lower, 1.63
- P14K — lower, 1.77
- P14G — higher, 3.94
- P14A — lower, 1.42
- P14H — higher, 2.87
- P14W — higher, 2.41
- P14I — lower, 1.78
- K2Q — lower, 1.31
- K2N — lower, 1.45
- K2Y — higher, 2.37
- K2L — higher, 3.05
- K2H — lower, 1.88
- K2W — higher, 3.46
- K2A — lower, 1.48
- K2I — lower, 1.72
- K2D — lower, 1.48
- K2C — lower, 1.79
- K2E — lower, 1.71
- K2G — lower, 1.64
- K2V — higher, 3.04
- K2S — lower, 1.8
- K15P — higher, 2.99
- K15I — higher, 3.63
- K15W — higher, 3.79
- K15R — lower, 2.04
- K15N — higher, 2.34
- K15S — higher, 2.17
- K15H — higher, 2.34
- K15Q — lower, 1.84
- K15L — lower, 1.58
- K15E — higher, 2.66
- K15D — lower, 2.06
- K11S — lower, 1.55
- K11C — lower, 2.02
- K11G — higher, 3.44
- K11R — higher, 2.39
- K11H — lower, 1.79
- K11A — higher, 3.29
- K11Y — higher, 2.48
- K11D — lower, 1.76
- K11M — higher, 3.04
- K11I — higher, 3.65
- K11E — lower, 1.69
- K11Q — lower, 1.44
- K11N — higher, 2.29
- T9K — lower, 2.06
- T9G — lower, 1.23
- T9W — higher, 3.03
- T9Q — higher, 2.64
- T9L — higher, 3.4
- T9I — lower, 1.5
- T9A — lower, 1.96
- T9D — higher, 2.17
- T9H — higher, 2.33
- T9N — higher, 2.45
- T9M — higher, 2.39
- T9R — lower, 1.81
- T9C — higher, 2.2
- T9V — higher, 2.35
- T9S — higher, 2.19
- T9E — lower, 1.53
- T9Y — higher, 2.22
- Y1G — lower, 1.2
- Y1P — lower, 1.72
- Y1W — higher, 2.2
- Y1M — lower, 1.93
- Y1D — lower, 2.03
- Y1F — lower, 1.23
- Y1N — lower, 1.9
- Y1V — lower, 2.05
- Y1S — higher, 2.2
- Y1K — lower, 1.54
- Y1L — higher, 2.59
- Y1A — higher, 2.34
- Y1E — higher, 2.15
- K4R — higher, 3.6
- K4S — lower, 1.93
- K4M — lower, 1.26
- K4P — lower, 1.35
- K4N — higher, 2.97
- K4Y — higher, 2.3
- K4E — higher, 2.48
- K4D — lower, 1.45
- K4L — higher, 2.23
- K4Q — lower, 1.88
- K4A — lower, 1.88
- K4W — higher, 3.3
- K4V — lower, 1.22
- K4G — lower, 2.1
- K4H — higher, 2.52
- P13H — higher, 2.49
- P13S — lower, 2.09
- P13Q — lower, 1.76
- P13V — lower, 1.98
- P13T — higher, 2.42
- P13F — higher, 2.63
- P13N — lower, 2.05
- P13I — higher, 2.27
- P13K — higher, 3.2
- P13G — lower, 1.5
- P13E — higher, 2.94
- P13D — lower, 1.93
- P13C — lower, 2.03
- P13A — higher, 2.68
- P13L — lower, 2.02
- P13R — higher, 2.2
